# According to patent publication US6225121:
# Test system: T1, Minos transposase (Minos-2) (Drosophila hydei)
# T1 sequence: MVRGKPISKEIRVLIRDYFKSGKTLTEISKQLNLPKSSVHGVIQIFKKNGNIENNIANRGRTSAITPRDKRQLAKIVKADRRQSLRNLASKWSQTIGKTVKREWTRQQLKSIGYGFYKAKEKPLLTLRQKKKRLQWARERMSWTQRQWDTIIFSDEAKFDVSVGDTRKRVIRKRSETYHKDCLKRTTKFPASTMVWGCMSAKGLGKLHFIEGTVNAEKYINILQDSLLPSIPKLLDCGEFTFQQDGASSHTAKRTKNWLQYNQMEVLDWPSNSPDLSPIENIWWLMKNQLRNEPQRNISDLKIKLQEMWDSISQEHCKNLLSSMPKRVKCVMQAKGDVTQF
# Experiment: cell_activity
# Details: HeLa stable transfectants vs transposon alone, experiment 1 (18-fold and 14.5-fold in experiments 2 and 3); source Minos copy of helper not stated; binding not …
substance,measurement,value
"Minos transposon with both terminal inverted repeats, neo cargo (pMiLRneo)",activity,19 fold
